In patent US20160122739A1:

What was measured:
Assay in all cases: cell-based or functional assay
[1] = target: recombinant human Factor IXa K126A/K132A (human) (UniProt P00740)
[2] = target: recombinant human Factor IXa K126A/R150A (human) (UniProt P00740)
[3] = target: recombinant human Factor IXa R150A (human) (UniProt P00740)
[4] = target: recombinant human Factor IXa K132A/R150A (human) (UniProt P00740)
[5] = target: recombinant human Factor IXa K126A (human) (UniProt P00740)
[6] = target: recombinant human Factor IXa K126A/K132A/R150A (human) (UniProt P00740)
[7] = target: recombinant human Factor IXa wild-type (human) (UniProt P00740)
[8] = target: human plasma-derived Factor IXa (human) (UniProt P00740)
[9] = target: recombinant human Factor IXa K132A (human) (UniProt P00740)

**Q.** Which k2, inhibition of FIXa by ATIII/Fond (460 nM fondaparinux) [1] does the source give for “human plasma-derived antithrombin (from UniProt P01008 33-464)” here?
**A.** Its k2, inhibition of FIXa by ATIII/Fond (460 nM fondaparinux) is 2640 M⁻¹ s⁻¹.

**Q.** What about the k2, inhibition of FIXa by ATIII/UFH (0.24 U/mL) [1] of the same substance?
**A.** The k2, inhibition of FIXa by ATIII/UFH (0.24 U/mL) was 423 M⁻¹ s⁻¹.

**Q.** And the k2, inhibition of FIXa by ATIII/Fond (460 nM fondaparinux) [2]?
**A.** The k2, inhibition of FIXa by ATIII/Fond (460 nM fondaparinux) was 63.3 M⁻¹ s⁻¹.

**Q.** And the k2, inhibition of FIXa by ATIII/Fond (460 nM fondaparinux) [3]?
**A.** The k2, inhibition of FIXa by ATIII/Fond (460 nM fondaparinux) was 71.7 M⁻¹ s⁻¹.

**Q.** What about the k2, inhibition of FIXa by ATIII/UFH (0.24 U/mL) [3] of the same substance?
**A.** The k2, inhibition of FIXa by ATIII/UFH (0.24 U/mL) was 262 M⁻¹ s⁻¹.

**Q.** And the k2, inhibition of FIXa by ATIII/Fond (460 nM fondaparinux) [4]?
**A.** The k2, inhibition of FIXa by ATIII/Fond (460 nM fondaparinux) was 68.3 M⁻¹ s⁻¹.

**Q.** What about the k2, inhibition of FIXa by ATIII/Fond (460 nM fondaparinux) [5] of the same substance?
**A.** Its k2, inhibition of FIXa by ATIII/Fond (460 nM fondaparinux) is 3300 M⁻¹ s⁻¹.

**Q.** What about the k2, inhibition of FIXa by ATIII/UFH (0.24 U/mL) [5] of the same substance?
**A.** Its k2, inhibition of FIXa by ATIII/UFH (0.24 U/mL) is 1560 M⁻¹ s⁻¹.

**Q.** And the k2, inhibition of FIXa by ATIII/Fond (460 nM fondaparinux) [6]?
**A.** The k2, inhibition of FIXa by ATIII/Fond (460 nM fondaparinux) was 68.3 M⁻¹ s⁻¹.

**Q.** What about the k2, inhibition of FIXa by ATIII/UFH (0.24 U/mL) [6] of the same substance?
**A.** Its k2, inhibition of FIXa by ATIII/UFH (0.24 U/mL) is 6.67 M⁻¹ s⁻¹.

**Q.** What about the k2, inhibition of FIXa by ATIII, no heparin [7] of the same substance?
**A.** The k2, inhibition of FIXa by ATIII, no heparin was 51.7 M⁻¹ s⁻¹.

**Q.** What about the k2, inhibition of FIXa by ATIII/Fond (460 nM fondaparinux) [7] of the same substance?
**A.** The k2, inhibition of FIXa by ATIII/Fond (460 nM fondaparinux) was 3290 M⁻¹ s⁻¹.

**Q.** What about the k2, inhibition of FIXa by ATIII/UFH (0.24 U/mL) [7] of the same substance?
**A.** The k2, inhibition of FIXa by ATIII/UFH (0.24 U/mL) was 4330 M⁻¹ s⁻¹.

**Q.** And the k2, inhibition of FIXa by ATIII/Fond (460 nM fondaparinux) [8]?
**A.** Its k2, inhibition of FIXa by ATIII/Fond (460 nM fondaparinux) is 3520 M⁻¹ s⁻¹.

**Q.** And the k2, inhibition of FIXa by ATIII/UFH (0.24 U/mL) [8]?
**A.** The k2, inhibition of FIXa by ATIII/UFH (0.24 U/mL) was 3430 M⁻¹ s⁻¹.

**Q.** What about the k2, inhibition of FIXa by ATIII/Fond (460 nM fondaparinux) [9] of the same substance?
**A.** Its k2, inhibition of FIXa by ATIII/Fond (460 nM fondaparinux) is 3250 M⁻¹ s⁻¹.

**Q.** And the k2, inhibition of FIXa by ATIII/UFH (0.24 U/mL) [9]?
**A.** The k2, inhibition of FIXa by ATIII/UFH (0.24 U/mL) was 3740 M⁻¹ s⁻¹.
